Results published in patent publication US20240343823A1 (Ablynx, published 2024).
Read-outs that look alike come from different tables or passages of the source.

B1: T017000698 (bispecific antibody)
chain: DVQLVESGGGVVQPGGSLRLSCVASGYVHKINFYGWYRQAPGKEREKVAHISIGDQTDYADSAKGRFTISRDESKNTVYLQMNSLRPEDTAAYYCRALSRIWPYDYWGQGTLVTVSSGGGGSGGGSEVQLVESGGGVVQPGGSLRLSCAASGFTFRSFGMSWVRQAPGKGPEWVSSISGSGSDTLYADSVKGRFTISRDNSKNTLYLQMNSLRPEDTALYYCTIGGSLSRSSQGTLVTVSSA
notes: Bivalent ISVD construct: anti-TCR and anti-albumin; also called TCE01-9GS-ALB23002-A
B2: ALB223 (VHH)
VHH: EVQLVESGGGVVQPGGSLRLSCAASGFTFRSFGMSWVRQAPGKGPEWVSSISGSGSDTLYADSVKGRFTISRDNSKNTLYLQMNSLRPEDTALYYCTIGGSLSRSSQGTLVTVSS
notes: also called ALB23002-A
B3: A0226015A08 (VHH)
VHH: EVQLVESGGGLVQAGGSLRLSCVASGSIFRSVFSSSTMEWYRQPPGKKRELVARIAPGDGTNYGALYADSVKGRFTISRDDAKKTVDLQMNSLKPEDTGVYFCASGVAWGQGTLVTVSS
notes: Parental ISVD; also called A02260015A08; anti-GPC3 ISVD
B4: A0226018C08 (VHH)
VHH: EVQLVESGGGLVQPGGSLRLSCVASGFTFSSFAMTWVRRPPGKGLEWVATITNGGVTSYRDSVKGRFTISRDNAKNTLYLEMTSLNPEDTAVYICANARRTGPRAPTDIGSYRGQGTLVTVSS
notes: Parental ISVD; also called A02260018C08; anti-GPC3 ISVD
B5: A022600314 (VHH)
VHH: EVQLVESGGGVVQPGGSLRLSCAASGSIFRSVFSSSTMEWYRQAPGKKRELVARIAPGEGTYYGALYADSVKGRFTISRDNAKNTVYLQMNSLRPEDTALYYCASGVAWGQGTLVTVSS
notes: also called A0226000314
B6: A022600031 (bispecific antibody)
chain: DVQLVESGGGLVQPGGSLRLSCVASGDVHKINFLGWYRQAPGKEREKVAHISIGDQTDYADSAKGRFTISRDESKNMVYLQMNSLKPEDTAVYFCRAFSRIYPYDYWGQGTLVTVSSGGGGSGGGGSGGGGSGGGGSGGGGSGGGGSGGGGSEVQLVESGGGLVQAGGSLRLSCVASGSIFRSVFSSSTMEWYRQPPGKKRELVARIAPGDGTNYGALYADSVKGRFTISRDDAKKTVDLQMNSLKPEDTGVYFCASGVAWGQGTLVTVSSGGGGSGGGGSGGGGSGGGGSGGGGSGGGGSGGGGSEVQLVESGGGVVQPGGSLRLSCAASGLTFSSYAMGWFRQAPGKERERVVSISRGGGYTYYADSVKGRFTISRDNSENTVYLQMNSLRPEDTALYYCAAARYWATGSEYEFDYWGQGTLVTVSS

Legend:
[1] = target: T1, cyno TCRab, in house produced (extracellular domains fused to a zipper peptide) (cynomolgus); assay: SPR ProteOn XPR36, TCRab immobilized by amine coupling, 1:1 model
T1 construct: Numbering of the four differences is not explained; not shown: variable domains, if any; any residues beyond C131 of the beta chain
T1 alpha: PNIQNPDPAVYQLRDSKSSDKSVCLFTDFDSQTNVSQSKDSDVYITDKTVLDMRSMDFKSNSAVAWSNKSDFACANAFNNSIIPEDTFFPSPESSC
T1 beta: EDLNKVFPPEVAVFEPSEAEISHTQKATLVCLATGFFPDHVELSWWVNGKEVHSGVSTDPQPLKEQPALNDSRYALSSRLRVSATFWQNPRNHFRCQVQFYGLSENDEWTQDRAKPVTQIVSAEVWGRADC
Description: (§1) Recombinant TCR proteins were immobilized on a GLC Sensor Chip (Biorad) via amine coupling, using EDC and NHS chemistry (running buffer: HBS-EP+, pH 7.4). Purified ISVDs were injected for 2 minutes (flow rate 45 μL/min) at different concentrations (between 0.2 nM and 200 nM) and dissociation was followed for 900 s. Regeneration was performed by injecting 3 M MgCl₂ for 3 minutes (flow rate 90 μL/min). Data was double referenced by subtracting a reference ligand lane and a blank buffer injection. Processed sensorgrams were analyzed based on the 1:1 interaction model (Langmuir binding model) using ProteOn Manager 3.1.0 (Version 3.1.0.6) software.

[2] = target: T2, TCRab on primary cyno T cells (cynomolgus); assay: competition flow cytometry on cyno T cells, competitor T017000623 at EC30 (5E-08 M)
T2 construct: whole, on cells; also called Primary cy T cells; cyno TCR
Description: (§2) T cells (human T cells obtained as described in Example 3 and cyno T cells purchased from LPT laboratory, Germany) were thawed and counted on the day of the assay and diluted to a concentration of 1E+06 cells/mL, before adding 75 μL to the wells of a V-bottom 96-well plate (Greiner, cat no 651180). Cells were washed once with cold FACS buffer, before adding 25 μL Nb and 25 μL competitor to the wells. […] Cells were resuspended and plates were incubated at 4° C. for 90 minutes, after which plates were washed twice in cold FACS buffer. Cells were resuspended in 50 μl 1/1000 diluted Monoclonal ANTI-FLAG® M2 (Sigma Aldrich, cat no F1804) in FACS buffer and incubated at 4° C. for 30 minutes. Plates were washed twice in cold FACS buffer. […] Plates were washed twice in cold FACS buffer. Cells were resuspended in 55 μL 1/1000 diluted Propidium Iodide (Sigma-Aldrich, cat no P4170) in FACS buffer before acquiring data on the MACSQuant X (Miltenyi biotec).

[3] = target: T3, TCRab on primary human T cells (human, UniProt P01848 1-140; P01850 1-176); assay: competition flow cytometry on primary human T cells, competitor T017000624 at EC30 (2E-08 M)
T3 construct: whole, on cells; T cells isolated from buffy coats; also called Primary hu T cells; human TCR
T3 TCR alpha (looked up): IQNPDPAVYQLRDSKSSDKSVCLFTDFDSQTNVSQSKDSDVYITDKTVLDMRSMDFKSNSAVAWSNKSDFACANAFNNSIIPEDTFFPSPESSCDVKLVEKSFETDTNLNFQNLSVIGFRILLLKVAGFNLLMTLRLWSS
T3 TCR beta (looked up): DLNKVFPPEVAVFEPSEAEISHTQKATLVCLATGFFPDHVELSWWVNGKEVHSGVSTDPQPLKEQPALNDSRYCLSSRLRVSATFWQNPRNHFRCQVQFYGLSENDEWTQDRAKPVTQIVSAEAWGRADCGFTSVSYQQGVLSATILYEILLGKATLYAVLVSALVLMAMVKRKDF
Description: as §2

[4] = target: T4, cyno serum albumin (in house produced from animal tissue) (cynomolgus); assay: SPR ProteOn XPR36, serum albumin immobilized by amine coupling, 1:1 model
T4 construct: also called cynomolgus serum albumin
T4 sequence (A2V9Z4 25-608): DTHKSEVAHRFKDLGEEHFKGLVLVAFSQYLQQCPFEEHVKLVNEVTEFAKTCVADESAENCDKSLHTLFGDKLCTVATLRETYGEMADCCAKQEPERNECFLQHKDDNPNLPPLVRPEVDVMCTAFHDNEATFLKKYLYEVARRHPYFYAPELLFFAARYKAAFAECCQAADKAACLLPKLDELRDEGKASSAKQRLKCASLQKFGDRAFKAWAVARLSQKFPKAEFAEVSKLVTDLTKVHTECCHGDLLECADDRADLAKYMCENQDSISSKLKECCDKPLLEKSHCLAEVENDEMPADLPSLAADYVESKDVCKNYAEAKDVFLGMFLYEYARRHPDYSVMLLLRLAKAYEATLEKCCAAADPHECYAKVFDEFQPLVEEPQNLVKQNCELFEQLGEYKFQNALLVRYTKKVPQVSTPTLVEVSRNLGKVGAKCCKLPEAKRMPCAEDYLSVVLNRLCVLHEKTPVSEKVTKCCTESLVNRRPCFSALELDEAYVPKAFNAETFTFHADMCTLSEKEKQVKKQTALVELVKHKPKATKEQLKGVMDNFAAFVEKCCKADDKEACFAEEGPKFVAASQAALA
Description: as §1, with “Serum albumin proteins” for “Recombinant TCR proteins”, “(between 0.24” for “(between 0.2”, “and 500” for “and 200”, “injecting 10 mM Glycine-HCl (pH 1.5)” for “injecting 3 M MgCl₂”, “for 47 seconds” for “for 3 minutes”, “rate 100” for “rate 90”

[5] = target: mouse serum albumin (DivBioScience cat no IMSA) (mouse, UniProt P07724 25-608); assay: as above
Sequence of mouse serum albumin (DivBioScience cat no IMSA) (P07724 25-608 limits assumed): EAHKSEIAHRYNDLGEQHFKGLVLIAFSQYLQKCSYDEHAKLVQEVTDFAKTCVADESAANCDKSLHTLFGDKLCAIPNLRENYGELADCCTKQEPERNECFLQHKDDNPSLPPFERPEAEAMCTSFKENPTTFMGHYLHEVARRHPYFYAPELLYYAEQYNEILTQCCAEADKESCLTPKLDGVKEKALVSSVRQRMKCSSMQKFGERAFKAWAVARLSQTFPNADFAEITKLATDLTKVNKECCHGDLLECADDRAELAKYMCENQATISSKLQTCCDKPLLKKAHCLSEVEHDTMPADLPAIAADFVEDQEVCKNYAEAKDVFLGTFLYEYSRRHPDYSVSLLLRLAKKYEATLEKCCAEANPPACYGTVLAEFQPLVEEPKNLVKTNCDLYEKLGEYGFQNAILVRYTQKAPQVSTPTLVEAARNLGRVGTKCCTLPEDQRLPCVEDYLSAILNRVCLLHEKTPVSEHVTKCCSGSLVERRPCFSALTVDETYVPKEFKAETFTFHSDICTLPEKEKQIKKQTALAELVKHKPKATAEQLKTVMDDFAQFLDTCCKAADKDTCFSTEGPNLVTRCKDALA
Description: as §1, with “Serum albumin proteins” for “Recombinant TCR proteins”, “(between 0.24” for “(between 0.2”, “and 500” for “and 200”, “injecting 10 mM Glycine-HCl (pH 1.5)” for “injecting 3 M MgCl₂”, “for 47 seconds” for “for 3 minutes”, “rate 100” for “rate 90”

[6] = target: T5, human serum albumin (Sigma cat no A8763) (human, UniProt P02768 25-609); assay: as above
T5 construct: also called HSA
Description: as §1, with “Serum albumin proteins” for “Recombinant TCR proteins”, “(between 0.24” for “(between 0.2”, “and 500” for “and 200”, “injecting 10 mM Glycine-HCl (pH 1.5)” for “injecting 3 M MgCl₂”, “for 47 seconds” for “for 3 minutes”, “rate 100” for “rate 90”

[7] = target: T6, human GPC3 on tumor cell lines (HepG2, Huh-7, NCI-H661, MKN-45, NCI-H23, BxPC-3, NCI-H292) (human, UniProt P51654 25-554); assay: flow cytometry on HepG2 cells
T6 construct: Endogenous GPC3 of human cancer cell lines; also called GPC3 on HepG2; GPC3 on Huh-7

[8] = target: T7, cyno Glypican-3 delta-GPI-HIS, in-house produced (cynomolgus); assay: SPR ProteOn XPR36, periplasmic extract over coated cyno GPC3
T7 construct: range 3-559; also called cyno GPC3; cyGPC3
Description: (§3) Off-rates of ISVDs were determined on a ProteOn XPR36 instrument (Bio-Rad Laboratories, Inc.). ProteOn GLC Sensor Chips were coated with cyno Glypican-3 AGPI-HIS (in-house produced; accession number P51654; Q3-R358; S359-H559) and human GPC3 (R&D Systems, cat nr. 2119-GP). Periplasmic extracts were diluted 1:10 in ProteOn PBS Tween buffer (PBS, pH 7.4, 0.005% Tween 20 (167-2720, BioRad)). Experiments were carried out at 25° C. Data obtained was double referenced by reference lane subtraction as well as subtraction of a blank buffer injection. Processed curves were used for off-rate analysis based on the Langmuir dissociation (off-rate analysis) model.

[9] = target: T8, human GPC3 expressed on CHO Flp-In cells (human, UniProt P51654 25-554); assay: flow cytometry, periplasmic extract on CHO Flp-In human GPC3 against parental CHO
T8 construct: On cells; Q25-R358, S359-H580; also called hGPC3 CHO; CHO huGPC3
Description: (§4) Periplasmic extracts were screened for human and cyno GPC3 binding in flow cytometry using CHO Flp-In cells (Invitrogen cat nr. K6010) expressing either human GPC3 (accession number P51654; Q25-R358, S359-H580) or cyno GPC3 (accession number P51654; Q3-R358; S359-H559), respectively. In brief, 1×10⁵ cells were incubated in 1:5 diluted periplasmic extracts for 30 min at 4° C., and then washed 3 times. As a control, the parental CHO Flp-In cell line (Invitrogen cat nr. K6010) was included. […] Samples were washed and resuspended in FACS Buffer (D-PBS (Gibco) with 10% FBS (Sigma) and 0.05% sodium azide (Merck)) supplemented with 5 nM TOPRO3 (Molecular Probes, cat nr T3605). Cell suspensions were then analyzed on a FACS Array. Gating was set on live, intact cells using forward/side scatter and TOPRO3 channel fluorescence parameters.

[10] = target: T9, cyno GPC3 expressed on CHO Flp-In cells (cynomolgus); assay: flow cytometry on CHO Flp-In cyno GPC3 cells
T9 construct: range 3-559; On cells; also called cyGPC3 CHO; CHO-cGPC3

[11] = target: T9, cyno GPC3 expressed on CHO Flp-In cells; assay: flow cytometry, periplasmic extract on CHO Flp-In cyno GPC3 against parental CHO
Description: as §4

[12] = target: T10, recombinant human Glypican-3 (R&D Systems, cat nr. 2119-GP) (human, UniProt P51654 25-559); assay: SPR ProteOn XPR36, periplasmic extract over coated human GPC3
T10 construct: Bought protein; also called human GPC3; hGPC3
Description: as §3

[13] = target: T6, human GPC3 on tumor cell lines (HepG2, …); assay: flow cytometry on Huh-7 cells
[14] = target: T9, cyno GPC3 expressed on CHO Flp-In cells; assay: flow cytometry on CHO Flp-In cyno GPC3 cells; remark: listed apart in the source
[15] = target: T6, human GPC3 on tumor cell lines (HepG2, …); assay: flow cytometry on Huh-7 cells; remark: listed apart in the source
[16] = target: T6, human GPC3 on tumor cell lines (HepG2, …); assay: flow cytometry on HepG2 cells; remark: listed apart in the source
[17] = target: T6, human GPC3 on tumor cell lines (HepG2, …); assay: flow cytometry on HepG2 and Huh-7 cells
Description: as §4
Variants were evaluated for binding to HepG2, Huh-7 and CHO Flip-In cyno-GPC3 cells by flow cytometry, as described in Example 1.

[18] = target: T9, cyno GPC3 expressed on CHO Flp-In cells; assay: flow cytometry on CHO Flp-In cyno GPC3 cells; remark: listed apart in the source
[19] = target: T6, human GPC3 on tumor cell lines (HepG2, …); assay: cell-based or functional assay

Binder	EC50 [7]	koff [8]	Ratio MFI hGPC3 CHO/CHO [9]	EC50 [10]	Ratio MFI cyGPC3 CHO/CHO [11]	koff [12]	EC50 [13]	other results
B1	–	–	–	–	–	–	–	Kd [1]: 11 nM; IC50 [2]: 250 nM; IC50 [3]: 190 nM
B2	–	–	–	–	–	–	–	Kd [4]: 0.57 nM; Kd [5]: 5.3 nM; Kd [6]: 0.88 nM
B3	7.5 nM	0.0004 s⁻¹	58.2	7.8 nM	13.7	0.00033 s⁻¹	6.6 nM	–
B4	–	0.0011 s⁻¹	159	–	19.9	0.00097 s⁻¹	–	EC50 [14]: 0.49 nM; EC50 [15]: 0.696 nM; EC50 [16]: 0.915 nM
B5	16 nM	–	–	12 nM	–	–	9.3 nM	fold decrease in binding potency against parental A0226015A08 [17]: < 2 fold; fold decrease in binding potency against parental A0226015A08 [18]: < 2 fold
B6	–	–	–	–	–	–	–	IC50 (M), Incucyte human TDC HepG2-Nuclight green assay [19]: 1.5e-08 M
